Reference: article PMC12452593

Target: EV-D68 US/MO/14-18947 viral particles (Enterovirus D68)

secreted MFSD6-Fc microbody (from UniProt Q6ZSS7 153-280) (Fc fusion)
survival rate of neonatal ICR mice (n = 9 per group) given 1.0 × 10^7 TCID50 of EV-D68 US/MO/14-18947 pre-incubated with 15 ug secMFSD6 Mb (secCtl Mb group: 11.11%): 88.9%
